# Key:
# [1] = test system: Sema7a^loxP/loxP HBBCre+ animals; test: Murine myocardial ischemia and reperfusion model, reconstitution of Sema7a loxP/loxP HbbCre+ animals with rmSema7a; format: in vivo, mouse
# Text: Sema7a^−/−mice were generated, validated and characterized as described in the prior art. The corresponding WT controls were bred as littermates of the Sema7a mice. In a subset of experiments, a newly generated Sema7a flox mouse line (Sema7a^loxP/loxP/Ozgene) on a C57BL/6 background was crossed with the following Cre recombinase-positive mouse lines to obtain tissue-specific gene deletion: Erythrocyte-specific HbbCre+, myocardial cell-specific Myh6Cre+; endothelial cell-specific Tie2Cre+; and immune cell-specific LysMCre+. Tissue-specific gene deletions of Sema7a mouse lines (Sema7a^loxP/loxP HbbCre+; Sema7a^loxP/loxP Myh6Cre+, […], and Sema7a^loxP/loxP LysMCre+) were used in the experiments. Sema7a^loxP/loxP Cre-negative (−) littermates were used as controls. […]
# The Vectastain ABC kit (Linaris, Wertheim, Germany) was used for immunohistochemical staining. […] Histological sections were analyzed for the presence of PNCs by manual counting within 3 independent tissue sections of each animal at a magnification of […].
# (§1) Troponin blood plasma levels of samples collected by central venous puncture after 120 minutes of reperfusion were measured for murine troponin I type 3 (TNNI3) using the SEA478Mu ELISA kit (Cloud-Clone Corp, Houston, USA).
# WT platelets = test: Flow chamber: thrombus formation on collagen in flow, whole-blood perfusion; format: cell-based, mouse
# Method: (§2) Platelet adhesion in flow was measured by perfusion of murine whole blood on collagen-coated coverslips (200 μg/ml fibrillar type I collagen) at 1000 s^−1 or 400 s^−1, as indicated. Platelets were labeled with a DyLight 488-conjugated anti-GPIX Ig derivative ([…]) and treated with rmSema7a or IgG2A Fc for 5 minutes at 37° C. before perfusion. In the case of treatment with GPlb-blocking antibody, 100 μg/mouse p0p/B Fab was injected intravenously 20 minutes before blood collection for the experiment. In further experiments, blood from animals with […] GPlb (GPlb-IL4tg) was used.
# GPlb-IL-4-tg platelets = test: Flow chamber: thrombus formation on collagen in flow, blood of GPlb-IL-4tg mice; format: cell-based, mouse; conditions: shear rate 1000 s−1
# Method: as §2
# neutrophils = test: Neutrophil rolling/adhesion, coated capillaries and intravital microscopy of cremaster; parameters: species or system mouse; conditions: in vitro and in vivo
# Method: Mice were anesthetized, and cremasal tissue was dissected under a Nikon 20×water immersion lens (NA=0.32). Neutrophils were resuspended with 20 μl of anti-Ly6G (Biolegend 127608) and platelets with 20 μl of platelet-specific FITC-labeled X488 antibody (emfret, Eibelstadt, Germany) in 200 μl and administered i.v. Videos of postcapillary cremaster venules 20-40 μm in diameter were recorded using a Hamamatsu Orca Flash 4.0 camera mounted on a dual-emission image splitter (optoSplit II, Cairn Research; UK) at a rate of 16 frames/s (for videos totaling 10 seconds) and with a resolution of 2048×1024 pixels mounted on a Nikon Eclipse Ci-L microscope (Nikon, Dusseldorf; Germany) operated by NIS elements Ar software. Videos were recorded before administration of rmSema7a i.v., and videos were recorded at 20-second intervals for 5 minutes after incubation for 15 minutes. Neutrophil velocity (μm/sec) was calculated from manually tracked cells, stationary neutrophils were counted (cell count/mm^2), platelet sedimentation on the vessel wall was measured (normalized MFI %/mm), transmigrated cells from the vasculature after 15 min exposure to rmSema7a were counted (cell count/mm^2), the distance of transmigrated cells measured in μm in all videos was calculated using NIS elements Ar software 4.20-64 bit processed (Nikon, Dusseldorf, Germany).
# WT animals = test: Murine myocardial ischemia and reperfusion model, rmSema7a injected into WT animals; format: in vivo, mouse
# Method: This animal model has been described in detail in the prior art. Subgroups of animals received either recombinant mouse Sema7a (rmSema7a) or recombinant mouse IgG2A Fc (rmlgG2A Fc; control) intravenously before the start of the experiment or Sema7a antibody (abcam ab23578, Cambridge, UK; anti-Sema7a) or as control rabbit IgG sc-2027 (Santa Cruz Biotechnology, Santa Cruz, USA) 5 minutes before the start of reperfusion.
# The Vectastain ABC kit (Linaris, Wertheim, Germany) was used for immunohistochemical staining. After inhibition of the nonspecific binding sites with avidin blocking solution (Vector), the sections were incubated with primary antibodies (rabbit anti-mouse CD41, abcam, Cambridge, UK) overnight at 4° C. Tissue sections were then incubated with biotinylated rabbit anti-IgG for 1 hour, followed by Vectastain ABC reagent for 30 minutes, then developed over DAB substrate. For PMN staining, the procedure was repeated using rat anti-mouse neutrophil antibody (BioRad, Serotec, Puchheim, Germany) and HistoGreen as substrate (Linaris, Wertheim, Germany). Counterstaining was performed with Nuclear Fast Red (Linaris, Wertheim, Germany). Histological sections were analyzed for the presence of PNCs by manual counting within 3 independent tissue sections of each animal at a magnification of […].
# as §1
# For flow cytometric analysis, the following antibodies were used and freshly prepared before the experiment: rat anti-mouse Ly6G (Biolegend, clone 1A8) labeled with BV421 (Biolegend 127628), rat anti-mouse CD42b-FITC (Emfret, clone Xia.G5), rat anti-mouse CD62P (BD Pharmingen, clone RB40.34) labeled with Alexa Fluor 647 (BD 563674), rat anti-mouse activated GPIlb/IIIa-PE (Emfret, clone JON/A).
# After staining, sampling focused peripheral granulocytes by their granularity and surface expression of the lymphocyte antigen-6 complex, locus G (Ly-6G), referred to as SSC/Ly-6G+. The presence of the platelet surface marker CD42b on the surface of SSC/Ly-6G+ events distinguished SSC/Ly-6G+/CD42b+ platelet-neutrophil complexes (PNCs) from freely circulating SSC/Ly-6G+/CD42b- PMNs. These two populations were tested for their representation of the surface transmembrane glycoprotein P-selectin (CD62P) and activated GPIlb/IIIa (clone JON/A) (not shown).
# [2] = test system: human cardiac myocytes (HMCs); test: Caspase 3 staining and caspase 3 ELISA in cardiac myocytes; format: cell-based; conditions: 1 μg/ml; cardiomyocytes
# Method: Human cardiac myocytes (HMC-c; PromoCell, Heidelberg, Germany) were grown to confluence on chamber slides followed by 6 hours of stimulation with rhSEMA7A, rhlgG1 Fc, BSA, or staurosporine (Sigma-Aldrich, Munich, Germany), 1 μg/ml each. After fixation, cells were stained with rabbit polyclonal anticaspase3 (abcam, Cambridge, UK).
molecule,measurement,setting,value
"rmSema7a: recombinant mouse Sema7a fusion protein (R&D SYSTEMS, Minneapolis, USA) (protein, left off: a dimerising Fc or GST) QGHSRSGPRISAVWKGQDHVDFSQPEPHTVLFHEPGSFSVWVGGRGKVYHFNFPEGKNASVRTVNIGSTKGSCQDKQDCGNYITLLERRGNGLLVCGTNARKPSCWNLVNDSVVMSLGEMKGYAPFSPDENSLVLFEGDEVYSTIRKQEYNGKIPRFRRIRGESELYTSDTVMQNPQFIKATIVHQDQAYDDKIYYFFREDNPDKNPEAPLNVSRVAQLCRGDQGGESSLSVSKWNTFLKAMLVCSDAATNRNFNRLQDVFLLPDPSGQWRDTRVYGVFSNPWNYSAVCVYSLGDIDRVFRTSSLKGYHMGLPNPRPGMCLPKKQPIPTETFQVADSHPEVAQRVEPMGPLKTPLFHSKYHYQKVVVHRMQASNGETFHVLYLTTDRGTIHKVVESGDQDHSFVFNIMEIQPFHRAAAIQAISLDADRRKLYVTSQWEVSQVPLDMCEVYSGGCHGCLMSRDPYCGWDQDRCVSIYSSQRSVLQSINPAEPHRECPNPKPDEAPLQKVSLARNSRYYLTCPMESRHATYLWRHEENVEQSCEPGHQSPSCILFIENLTARQYGHYRCEAQEGSYLREAQHWELLPEDRALAEQLMGHARALA","reduction in infarct size, plasma TnI and PNCs seen in Sema7a loxP/loxP HbbCre+ animals",[1]; injection of rmSema7a,these results were reversed
same,MIRI,"[1]; ischemia 1 h, reperfusion 2 h, vs Fc control",increased MIRI
same,adhesion and thrombus formation of WT platelets on collagen in flow,WT platelets; shear rate 400 s^−1,markedly enhances
same,adhesion and thrombus formation of WT platelets on collagen in flow,WT platelets; shear rate 1000 s^−1,markedly enhances
same,adhesion or thrombus formation of GPlb-IL-4-tg platelets on collagen in flow,GPlb-IL-4-tg platelets,does not affect
same,neutrophil adhesion,neutrophils,affected neutrophil adhesion
same,infarct size,"WT animals; 1 μg/mouse before reperfusion, compared with rmIgG2A Fc control",significantly increased infarct size
same,numbers of PNCs in tissue areas at risk (histological sections),WT animals; compared with Fc controls,decreased numbers of PNCs
same,tissue damage in histological sections,WT animals; compared with Fc controls,increased tissue damage
same,PNCs extravasated into the myocardium in the AAR,WT animals; flow cytometry,more PNCs extravasated
same,numbers of PNCs in the blood,WT animals; flow cytometry,significantly increased numbers of PNCs
same,"signals for GPlb, P-selectin, and activated integrin αIIbβ3 (JON/A) on conjugates in the AAR",WT animals; flow cytometry,significantly increased signals
same,"signals for the platelet markers GPlb, CD62P, and activated integrin αIIbβ3 (JON/A) on conjugates in blood",WT animals; flow cytometry,stronger signals
same,troponin I,"WT animals; plasma, 120 min, compared with Fc control",increased troponin I
"rhSEMA7A: recombinant human SEMA7A (protein, UniProt O75326 45-648, looked up) Semaphorin-7A: QGHLRSGPRIFAVWKGHVGQDRVDFGQTEPHTVLFHEPGSSSVWVGGRGKVYLFDFPEGKNASVRTVNIGSTKGSCLDKRDCENYITLLERRSEGLLACGTNARHPSCWNLVNGTVVPLGEMRGYAPFSPDENSLVLFEGDEVYSTIRKQEYNGKIPRFRRIRGESELYTSDTVMQNPQFIKATIVHQDQAYDDKIYYFFREDNPDKNPEAPLNVSRVAQLCRGDQGGESSLSVSKWNTFLKAMLVCSDAATNKNFNRLQDVFLLPDPSGQWRDTRVYGVFSNPWNYSAVCVYSLGDIDKVFRTSSLKGYHSSLPNPRPGKCLPDQQPIPTETFQVADRHPEVAQRVEPMGPLKTPLFHSKYHYQKVAVHRMQASHGETFHVLYLTTDRGTIHKVVEPGEQEHSFAFNIMEIQPFRRAAAIQTMSLDAERRKLYVSSQWEVSQVPLDLCEVYGGGCHGCLMSRDPYCGWDQGRCISIYSSERSVLQSINPAEPHKECPNPKPDKAPLQKVSLAPNSRYYLSCPMESRHATYSWRHKENVEQSCEPGHQSPNCILFIENLTAQQYGHYFCEAQEGSYFREAQHWQLLPEDGIMAEHLLGHACALA",pro-apoptotic effect assessed by caspase 3 activation,[2],no direct pro-apoptotic effect

# — patent US20230036161A1, “AGENT FOR USE IN THE TREATMENT AND PROPHYLAXIS OF POSTISCHEMIC TISSUE INJURY” (Eberhard Karls Universität Tübingen Medizinische Fakultät, priority 2020, published 2023)
